Results taken from publication PMC12416549 (2024).

Target: T1, TNFR1 (Homo sapiens, UniProt P19438)
T1 chain: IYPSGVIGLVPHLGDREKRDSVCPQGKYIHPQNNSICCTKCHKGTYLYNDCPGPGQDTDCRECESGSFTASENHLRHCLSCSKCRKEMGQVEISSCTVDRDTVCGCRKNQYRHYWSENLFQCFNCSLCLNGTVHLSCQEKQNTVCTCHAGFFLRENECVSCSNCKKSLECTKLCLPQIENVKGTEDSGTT
Assay: yeast display SC50

B1: A51G (designed binder)
chain: SMEEEVEKAAKEYEKKKKEAIEKHLEKLKAKDKEAAERFLKELEEAAKEYGKDEAKTMSEEEAKRRAKKYKEKVLLSELSEEEQKEIKEAEEKLVRTILKYVEEAAK
apparent Kd (screen): 2.05 nM

B2: K18I (designed binder)
chain: SMEEEVEKAAKEYEKKKIEAIEKHLEKLKAKDKEAAERFLKELEEAAKEYAKDEAKTMSEEEAKRRAKKYKEKVLLSELSEEEQKEIKEAEEKLVRTILKYVEEAAK
apparent Kd (screen): 0.653 nM

B3: A55N (designed binder)
chain: SMEEEVEKAAKEYEKKKKEAIEKHLEKLKAKDKEAAERFLKELEEAAKEYAKDENKTMSEEEAKRRAKKYKEKVLLSELSEEEQKEIKEAEEKLVRTILKYVEEAAK
apparent Kd (screen): 11.4 nM

B4: K68I (designed binder)
chain: SMEEEVEKAAKEYEKKKKEAIEKHLEKLKAKDKEAAERFLKELEEAAKEYAKDEAKTMSEEEAKRRAIKYKEKVLLSELSEEEQKEIKEAEEKLVRTILKYVEEAAK
apparent Kd (screen): 0.869 nM

B5: V102H (designed binder)
chain: SMEEEVEKAAKEYEKKKKEAIEKHLEKLKAKDKEAAERFLKELEEAAKEYAKDEAKTMSEEEAKRRAKKYKEKVLLSELSEEEQKEIKEAEEKLVRTILKYHEEAAK
apparent Kd (screen): 0.49 nM

B6: E60A (designed binder)
chain: SMEEEVEKAAKEYEKKKKEAIEKHLEKLKAKDKEAAERFLKELEEAAKEYAKDEAKTMSAEEAKRRAKKYKEKVLLSELSEEEQKEIKEAEEKLVRTILKYVEEAAK
apparent Kd (screen): 0.956 nM

B7: E91N (designed binder)
chain: SMEEEVEKAAKEYEKKKKEAIEKHLEKLKAKDKEAAERFLKELEEAAKEYAKDEAKTMSEEEAKRRAKKYKEKVLLSELSEEEQKEIKEANEKLVRTILKYVEEAAK
apparent Kd (screen): 0.653 nM

B8: A55H (designed binder)
chain: SMEEEVEKAAKEYEKKKKEAIEKHLEKLKAKDKEAAERFLKELEEAAKEYAKDEHKTMSEEEAKRRAKKYKEKVLLSELSEEEQKEIKEAEEKLVRTILKYVEEAAK
apparent Kd (screen): 12.5 nM

B9: A36I (designed binder)
chain: SMEEEVEKAAKEYEKKKKEAIEKHLEKLKAKDKEAIERFLKELEEAAKEYAKDEAKTMSEEEAKRRAKKYKEKVLLSELSEEEQKEIKEAEEKLVRTILKYVEEAAK
apparent Kd (screen): 1.54 nM

B10: E19A (designed binder)
chain: SMEEEVEKAAKEYEKKKKAAIEKHLEKLKAKDKEAAERFLKELEEAAKEYAKDEAKTMSEEEAKRRAKKYKEKVLLSELSEEEQKEIKEAEEKLVRTILKYVEEAAK
apparent Kd (screen): 0.869 nM

B11: E61D (designed binder)
chain: SMEEEVEKAAKEYEKKKKEAIEKHLEKLKAKDKEAAERFLKELEEAAKEYAKDEAKTMSEDEAKRRAKKYKEKVLLSELSEEEQKEIKEAEEKLVRTILKYVEEAAK
apparent Kd (screen): 1.05 nM

B12: K56I (designed binder)
chain: SMEEEVEKAAKEYEKKKKEAIEKHLEKLKAKDKEAAERFLKELEEAAKEYAKDEAITMSEEEAKRRAKKYKEKVLLSELSEEEQKEIKEAEEKLVRTILKYVEEAAK
apparent Kd (screen): 2.73 nM

B13: K64V (designed binder)
chain: SMEEEVEKAAKEYEKKKKEAIEKHLEKLKAKDKEAAERFLKELEEAAKEYAKDEAKTMSEEEAVRRAKKYKEKVLLSELSEEEQKEIKEAEEKLVRTILKYVEEAAK
apparent Kd (screen): 0.653 nM

B14: K23W (designed binder)
chain: SMEEEVEKAAKEYEKKKKEAIEWHLEKLKAKDKEAAERFLKELEEAAKEYAKDEAKTMSEEEAKRRAKKYKEKVLLSELSEEEQKEIKEAEEKLVRTILKYVEEAAK
apparent Kd (screen): 0.956 nM

B15: L79R (designed binder)
chain: SMEEEVEKAAKEYEKKKKEAIEKHLEKLKAKDKEAAERFLKELEEAAKEYAKDEAKTMSEEEAKRRAKKYKEKVLLSERSEEEQKEIKEAEEKLVRTILKYVEEAAK
apparent Kd (screen): 13.8 nM

B16: K41Y (designed binder)
chain: SMEEEVEKAAKEYEKKKKEAIEKHLEKLKAKDKEAAERFLYELEEAAKEYAKDEAKTMSEEEAKRRAKKYKEKVLLSELSEEEQKEIKEAEEKLVRTILKYVEEAAK
apparent Kd (screen): 0.446 nM

B17: L40W (designed binder)
chain: SMEEEVEKAAKEYEKKKKEAIEKHLEKLKAKDKEAAERFWKELEEAAKEYAKDEAKTMSEEEAKRRAKKYKEKVLLSELSEEEQKEIKEAEEKLVRTILKYVEEAAK
apparent Kd (screen): 0.49 nM

B18: L79T (designed binder)
chain: SMEEEVEKAAKEYEKKKKEAIEKHLEKLKAKDKEAAERFLKELEEAAKEYAKDEAKTMSEEEAKRRAKKYKEKVLLSETSEEEQKEIKEAEEKLVRTILKYVEEAAK
apparent Kd (screen): 1.86 nM

B19: E62Y (designed binder)
chain: SMEEEVEKAAKEYEKKKKEAIEKHLEKLKAKDKEAAERFLKELEEAAKEYAKDEAKTMSEEYAKRRAKKYKEKVLLSELSEEEQKEIKEAEEKLVRTILKYVEEAAK
apparent Kd (screen): 0.869 nM

B20: I87H (designed binder)
chain: SMEEEVEKAAKEYEKKKKEAIEKHLEKLKAKDKEAAERFLKELEEAAKEYAKDEAKTMSEEEAKRRAKKYKEKVLLSELSEEEQKEHKEAEEKLVRTILKYVEEAAK
apparent Kd (screen): 2.25 nM

B21: E62L (designed binder)
chain: SMEEEVEKAAKEYEKKKKEAIEKHLEKLKAKDKEAAERFLKELEEAAKEYAKDEAKTMSEELAKRRAKKYKEKVLLSELSEEEQKEIKEAEEKLVRTILKYVEEAAK
apparent Kd (screen): 0.653 nM

B22: H24T (designed binder)
chain: SMEEEVEKAAKEYEKKKKEAIEKTLEKLKAKDKEAAERFLKELEEAAKEYAKDEAKTMSEEEAKRRAKKYKEKVLLSELSEEEQKEIKEAEEKLVRTILKYVEEAAK
apparent Kd (screen): 1.16 nM

B23: A106C (designed binder)
chain: SMEEEVEKAAKEYEKKKKEAIEKHLEKLKAKDKEAAERFLKELEEAAKEYAKDEAKTMSEEEAKRRAKKYKEKVLLSELSEEEQKEIKEAEEKLVRTILKYVEEACK
apparent Kd (screen): 3 nM

B24: S59P (designed binder)
chain: SMEEEVEKAAKEYEKKKKEAIEKHLEKLKAKDKEAAERFLKELEEAAKEYAKDEAKTMPEEEAKRRAKKYKEKVLLSELSEEEQKEIKEAEEKLVRTILKYVEEAAK
apparent Kd (screen): 0.446 nM

B25: A47P (designed binder)
chain: SMEEEVEKAAKEYEKKKKEAIEKHLEKLKAKDKEAAERFLKELEEAPKEYAKDEAKTMSEEEAKRRAKKYKEKVLLSELSEEEQKEIKEAEEKLVRTILKYVEEAAK
apparent Kd (screen): 10.4 nM

B26: M58A (designed binder)
chain: SMEEEVEKAAKEYEKKKKEAIEKHLEKLKAKDKEAAERFLKELEEAAKEYAKDEAKTASEEEAKRRAKKYKEKVLLSELSEEEQKEIKEAEEKLVRTILKYVEEAAK
apparent Kd (screen): 10.4 nM

B27: E92V (designed binder)
chain: SMEEEVEKAAKEYEKKKKEAIEKHLEKLKAKDKEAAERFLKELEEAAKEYAKDEAKTMSEEEAKRRAKKYKEKVLLSELSEEEQKEIKEAEVKLVRTILKYVEEAAK
apparent Kd (screen): 12.5 nM

B28: D53E (designed binder)
chain: SMEEEVEKAAKEYEKKKKEAIEKHLEKLKAKDKEAAERFLKELEEAAKEYAKEEAKTMSEEEAKRRAKKYKEKVLLSELSEEEQKEIKEAEEKLVRTILKYVEEAAK
apparent Kd (screen): 0.718 nM

B29: A20F (designed binder)
chain: SMEEEVEKAAKEYEKKKKEFIEKHLEKLKAKDKEAAERFLKELEEAAKEYAKDEAKTMSEEEAKRRAKKYKEKVLLSELSEEEQKEIKEAEEKLVRTILKYVEEAAK
apparent Kd (screen): 0.446 nM

B30: K85C (designed binder)
chain: SMEEEVEKAAKEYEKKKKEAIEKHLEKLKAKDKEAAERFLKELEEAAKEYAKDEAKTMSEEEAKRRAKKYKEKVLLSELSEEEQCEIKEAEEKLVRTILKYVEEAAK
apparent Kd (screen): 0.539 nM

B31: K71A (designed binder)
chain: SMEEEVEKAAKEYEKKKKEAIEKHLEKLKAKDKEAAERFLKELEEAAKEYAKDEAKTMSEEEAKRRAKKYAEKVLLSELSEEEQKEIKEAEEKLVRTILKYVEEAAK
apparent Kd (screen): 0.446 nM

B32: E104F (designed binder)
chain: SMEEEVEKAAKEYEKKKKEAIEKHLEKLKAKDKEAAERFLKELEEAAKEYAKDEAKTMSEEEAKRRAKKYKEKVLLSELSEEEQKEIKEAEEKLVRTILKYVEFAAK
apparent Kd (screen): 0.593 nM

B33: E45K (designed binder)
chain: SMEEEVEKAAKEYEKKKKEAIEKHLEKLKAKDKEAAERFLKELEKAAKEYAKDEAKTMSEEEAKRRAKKYKEKVLLSELSEEEQKEIKEAEEKLVRTILKYVEEAAK
apparent Kd (screen): 12.5 nM

B34: D53M (designed binder)
chain: SMEEEVEKAAKEYEKKKKEAIEKHLEKLKAKDKEAAERFLKELEEAAKEYAKMEAKTMSEEEAKRRAKKYKEKVLLSELSEEEQKEIKEAEEKLVRTILKYVEEAAK
apparent Kd (screen): 4.83 nM

B35: E26A (designed binder)
chain: SMEEEVEKAAKEYEKKKKEAIEKHLAKLKAKDKEAAERFLKELEEAAKEYAKDEAKTMSEEEAKRRAKKYKEKVLLSELSEEEQKEIKEAEEKLVRTILKYVEEAAK
apparent Kd (screen): 1.05 nM
